B1: Voltage-gated delayed rectifier potassium channel KCNH1 (Homo sapiens), O95259-2 (parent)
chain: MTMAGGRRGLVAPQNTFLENIVRRSNDTNFVLGNAQIVDWPIVYSNDGFCKLSGYHRAEVMQKSSTCSFMYGELTDKDTIEKVRQTFENYEMNSFEILMYKKNRTPVWFFVKIAPIRNEQDKVVLFLCTFSDITAFKQPIEDDSCKGWGKFARLTRALTSSRGVLQQLAPSVQKGENVHKHSRLAEVLQLGSDILPQYKQEAPKTPPHIILHYCVFKTTWDWIILILTFYTAILVPYNVSFKTRQNNVAWLVVDSIVDVIFLVDIVLNFHTTFVGPAGEVISDPKLIRMNYLKTWFVIDLLSCLPYDVINAFENVDEGISSLFSSLKVVRLLRLGRVARKLDHYIEYGAAVLVLLVCVFGLAAHWMACIWYSIGDYEIFDEDTKTIRNNSWLYQLAMDIGTPYQFNGSGSGKWEGGPSKNSVYISSLYFTMTSLTSVGFGNIAPSTDIEKIFAVAIMMIGSLLYATIFGNVTTIFQQMYANTNRYHEMLNSVRDFLKLYQVPKGLSERVMDYIVSTWSMSRGIDTEKVLQICPKDMRADICVHLNRKVFKEHPAFRLASDGCLRALAMEFQTVHCAPGDLIYHAGESVDSLCFVVSGSLEVIQDDEVVAILGKGDVFGDVFWKEATLAQSCANVRALTYCDLHVIKRDALQKVLEFYTAFSHSFSRNLILTYNLRKRIVFRKISDVKREEEERMKRKNEAPLILPPDHPVRRLFQRFRQQKEARLAAERGGRDLDDLDVEKGNVLTEHASANHSLVKASVVTVRESPATPVSFQAASTSGVPDHAKLQAPGSECLGPKGGGGDCAKRKSWARFKDACGKSEDWNKVSKAESMETLPERTKASGEATLKKTDSCDSGITKSDLRLDNVGEARSPQDRSPILAEVKHSFYPIPEQTLQATVLEVRHELKEDIKALNAKMTNIEKQLSEILRILTSRRSSQSPQELFEISRPQSPESERDIFGAS
partner: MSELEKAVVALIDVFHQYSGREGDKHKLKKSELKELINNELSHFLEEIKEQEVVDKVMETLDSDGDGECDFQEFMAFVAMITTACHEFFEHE

Variants of: B1
Conditions: with S100B

| Variant | effect of a mutation on the interaction |
| --- | --- |
| K682N | disrupting interaction |
| R677N | disrupting interaction |

Now from value to variant:

| effect of a mutation on the interaction | Variant |
| --- | --- |
| disrupting interaction | R681N |
| disrupting interaction | R675N |

Variants of: B1
Conditions: with S100B
Remark: another data set of the same source

| effect of a mutation on the interaction | Variant |
| --- | --- |
| disrupting interaction | F714S |
| disrupting interaction | F717S |

Source: IntAct's records for PubMed 20708613
